Results taken from the supplement of paper PMC10065799, “High-throughput profiling of sequence recognition by tyrosine kinases and SH2 domains using bacterial peptide display” (eLife, 2023).

System: AncSZ
Assay: phosphorylation enrichment, bacterial display (enrichment ratio); higher = better substrate or ligand; peptides without Tyr show the background
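Note: 11-residue human phosphosite peptides and single-mutation variants displayed on the E. coli surface, counted by deep sequencing, each peptide's frequency after selection divided by its frequency in the unselected input library; frequency after pTyr selection over input frequency; kinase dosed for 20-30% of maximal phosphorylation in three min.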

Sequence | phosphorylation enrichment
FFRKFYNKSED [RYR1_Y4864] | 0.794
EALDFYGEVKT [PTEN_Y155_R159K] | 1.19
CTTNHYNFMCN [TP53_Y234_I232N_YF] | 0.811
PMWHPYKADVT [TP53TG5_Y255_V257A] | 0.851
GRSTCYWPRPR [GAGE12J_Y10_Y9C] | 0.762
AKKVFYVIETR [SHH_Y253] | 1.12
FLEEEYVKAVG [TF_Y674_G671E_YF] | 1.19
RSSKTYLKTRS [LPL_Y329_M328T] | 0.739
TNIKRYHIAKG [HARS1_Y150_V155G] | 0.506
QNTADYYDLYG [PTPN11_Y62_G60A] | 2.62
MGIMLYGVDSR [PKD1_Y3143_V3138M] | 0.931
TEALFYTDDTA [ADPRS_Y75_YF] | 1.26
VRVQLYDPDYM [CYP4A22_Y100] | 1.56
HFPDVYAWEQL [ALX3_Y181_R183W_YF] | 1.2
RLLRGYDQYAY [HLA-B_Y137_H137Y] | 0.865
SSTAMYSAPGR [PSMB1_Y8] | 0.75
WNEVGYDDIGG [VCP_Y203_L198W] | 1.07
QNTGFYFDLFG [PTPN11_Y62_D61Y_YF] | 1.89
QTLEAYIRCNK [SPAST_Y604_W607C] | 1.12
TTPFNYSFIFK [RAB14_Y8_A4T_YF] | 1.2
SQSPHYFRSGQ [GPATCH8_Y1038_R1043Q] | 0.551
KSPDSYQKILP [ATM_Y1415_L1420P] | 0.544
ERLWVYGMSSS [F8_Y1728_D1727V] | 1.17
EQLRAYLEGLC [HLA-C_Y183_T187L] | 1.34
TIQDAYMHITS [ADCY10_Y318_A313T] | 0.7
SVTCTYSPALK [TP53_Y126_N131K] | 0.97
GGSTYYIDTNA [ACTL6A_Y69_P66S] | 0.882
FLTQHYDAIPQ [ANG_Y38_K41I] | 0.885
DSNPIYSQIWS [FCRL3_Y662] | 1.88

Target: EPHB1 (UniProt P54762)
Sequence (P54762 whole entry, looked up): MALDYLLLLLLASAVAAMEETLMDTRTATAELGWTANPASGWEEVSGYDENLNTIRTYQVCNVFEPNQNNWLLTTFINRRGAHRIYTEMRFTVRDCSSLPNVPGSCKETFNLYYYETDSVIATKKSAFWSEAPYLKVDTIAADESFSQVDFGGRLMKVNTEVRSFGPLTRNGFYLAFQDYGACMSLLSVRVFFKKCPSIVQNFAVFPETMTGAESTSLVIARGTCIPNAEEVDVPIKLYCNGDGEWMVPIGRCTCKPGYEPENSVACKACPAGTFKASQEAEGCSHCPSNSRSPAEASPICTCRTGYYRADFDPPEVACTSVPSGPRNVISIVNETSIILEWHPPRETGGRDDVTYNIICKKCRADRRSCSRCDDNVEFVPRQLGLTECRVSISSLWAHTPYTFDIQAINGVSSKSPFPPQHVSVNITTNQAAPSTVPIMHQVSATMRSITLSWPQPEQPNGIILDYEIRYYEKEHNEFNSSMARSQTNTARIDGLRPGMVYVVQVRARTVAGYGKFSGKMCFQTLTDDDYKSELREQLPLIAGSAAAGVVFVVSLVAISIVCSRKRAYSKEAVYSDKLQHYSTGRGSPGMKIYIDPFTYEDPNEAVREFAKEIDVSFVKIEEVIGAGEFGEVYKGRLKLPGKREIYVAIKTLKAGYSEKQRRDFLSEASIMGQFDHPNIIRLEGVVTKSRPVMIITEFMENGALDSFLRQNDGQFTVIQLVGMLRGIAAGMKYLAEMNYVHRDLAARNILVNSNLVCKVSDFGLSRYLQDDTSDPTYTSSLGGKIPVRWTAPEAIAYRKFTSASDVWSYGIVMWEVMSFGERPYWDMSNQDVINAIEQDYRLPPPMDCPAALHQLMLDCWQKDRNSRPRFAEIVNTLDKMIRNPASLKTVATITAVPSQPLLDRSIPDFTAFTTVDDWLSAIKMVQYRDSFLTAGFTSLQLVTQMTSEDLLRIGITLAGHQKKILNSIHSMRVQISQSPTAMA
Assay: as above

Sequence | phosphorylation enrichment
FFRKFYNKSED [RYR1_Y4864] | 0.386
EALDFYGEVKT [PTEN_Y155_R159K] | 0.719
CTTNHYNFMCN [TP53_Y234_I232N_YF] | 0.436
PMWHPYKADVT [TP53TG5_Y255_V257A] | 0.657
GRSTCYWPRPR [GAGE12J_Y10_Y9C] | 0.502
AKKVFYVIETR [SHH_Y253] | 0.569
FLEEEYVKAVG [TF_Y674_G671E_YF] | 0.59
RSSKTYLKTRS [LPL_Y329_M328T] | 0.609
TNIKRYHIAKG [HARS1_Y150_V155G] | 0.311
QNTADYYDLYG [PTPN11_Y62_G60A] | 12.4
MGIMLYGVDSR [PKD1_Y3143_V3138M] | 0.546
TEALFYTDDTA [ADPRS_Y75_YF] | 0.643
VRVQLYDPDYM [CYP4A22_Y100] | 1.27
HFPDVYAWEQL [ALX3_Y181_R183W_YF] | 0.922
RLLRGYDQYAY [HLA-B_Y137_H137Y] | 0.636
SSTAMYSAPGR [PSMB1_Y8] | 0.497
WNEVGYDDIGG [VCP_Y203_L198W] | 0.608
QNTGFYFDLFG [PTPN11_Y62_D61Y_YF] | 1.6
QTLEAYIRCNK [SPAST_Y604_W607C] | 0.906
TTPFNYSFIFK [RAB14_Y8_A4T_YF] | 2.1
SQSPHYFRSGQ [GPATCH8_Y1038_R1043Q] | 0.435
KSPDSYQKILP [ATM_Y1415_L1420P] | 0.387
ERLWVYGMSSS [F8_Y1728_D1727V] | 0.669
EQLRAYLEGLC [HLA-C_Y183_T187L] | 0.653
TIQDAYMHITS [ADCY10_Y318_A313T] | 0.479
SVTCTYSPALK [TP53_Y126_N131K] | 0.407
GGSTYYIDTNA [ACTL6A_Y69_P66S] | 0.563
FLTQHYDAIPQ [ANG_Y38_K41I] | 0.715
DSNPIYSQIWS [FCRL3_Y662] | 20.2

Target: EPHB2 (UniProt P29323)
Sequence (P29323 whole entry, looked up): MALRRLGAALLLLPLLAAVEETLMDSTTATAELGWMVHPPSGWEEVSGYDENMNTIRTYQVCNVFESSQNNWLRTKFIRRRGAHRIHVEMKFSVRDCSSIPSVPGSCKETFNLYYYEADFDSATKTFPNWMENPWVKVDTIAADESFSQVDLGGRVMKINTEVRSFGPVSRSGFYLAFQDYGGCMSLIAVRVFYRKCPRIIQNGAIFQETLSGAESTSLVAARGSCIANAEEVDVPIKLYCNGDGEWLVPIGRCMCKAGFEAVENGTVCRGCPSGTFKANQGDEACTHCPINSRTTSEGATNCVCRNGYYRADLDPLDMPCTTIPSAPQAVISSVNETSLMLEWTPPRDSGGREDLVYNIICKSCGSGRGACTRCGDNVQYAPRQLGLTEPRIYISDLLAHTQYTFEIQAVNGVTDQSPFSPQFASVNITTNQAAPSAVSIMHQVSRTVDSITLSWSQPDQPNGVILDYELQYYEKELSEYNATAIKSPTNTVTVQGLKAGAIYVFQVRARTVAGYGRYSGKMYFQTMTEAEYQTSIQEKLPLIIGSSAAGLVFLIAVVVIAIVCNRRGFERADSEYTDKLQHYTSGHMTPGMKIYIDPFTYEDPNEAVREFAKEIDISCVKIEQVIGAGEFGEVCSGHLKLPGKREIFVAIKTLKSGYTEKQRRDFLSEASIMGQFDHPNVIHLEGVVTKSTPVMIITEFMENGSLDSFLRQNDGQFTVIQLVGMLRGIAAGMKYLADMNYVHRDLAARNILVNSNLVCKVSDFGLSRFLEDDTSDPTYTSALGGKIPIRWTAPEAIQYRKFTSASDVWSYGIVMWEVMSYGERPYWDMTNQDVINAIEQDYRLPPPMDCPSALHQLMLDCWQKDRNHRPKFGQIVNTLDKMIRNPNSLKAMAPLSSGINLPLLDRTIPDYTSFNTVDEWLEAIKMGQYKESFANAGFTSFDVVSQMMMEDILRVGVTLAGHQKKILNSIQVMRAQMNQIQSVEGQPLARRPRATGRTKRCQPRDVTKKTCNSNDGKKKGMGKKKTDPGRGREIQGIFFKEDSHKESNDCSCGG
Assay: as above

Sequence | phosphorylation enrichment
FFRKFYNKSED [RYR1_Y4864] | 0.57
EALDFYGEVKT [PTEN_Y155_R159K] | 0.722
CTTNHYNFMCN [TP53_Y234_I232N_YF] | 0.544
PMWHPYKADVT [TP53TG5_Y255_V257A] | 0.572
GRSTCYWPRPR [GAGE12J_Y10_Y9C] | 0.512
AKKVFYVIETR [SHH_Y253] | 0.582
FLEEEYVKAVG [TF_Y674_G671E_YF] | 0.67
RSSKTYLKTRS [LPL_Y329_M328T] | 0.561
TNIKRYHIAKG [HARS1_Y150_V155G] | 0.39
QNTADYYDLYG [PTPN11_Y62_G60A] | 11.9
MGIMLYGVDSR [PKD1_Y3143_V3138M] | 0.576
TEALFYTDDTA [ADPRS_Y75_YF] | 0.614
VRVQLYDPDYM [CYP4A22_Y100] | 0.776
HFPDVYAWEQL [ALX3_Y181_R183W_YF] | 0.935
RLLRGYDQYAY [HLA-B_Y137_H137Y] | 0.821
SSTAMYSAPGR [PSMB1_Y8] | 0.674
WNEVGYDDIGG [VCP_Y203_L198W] | 0.515
QNTGFYFDLFG [PTPN11_Y62_D61Y_YF] | 1.25
QTLEAYIRCNK [SPAST_Y604_W607C] | 0.738
TTPFNYSFIFK [RAB14_Y8_A4T_YF] | 0.734
SQSPHYFRSGQ [GPATCH8_Y1038_R1043Q] | 0.316
KSPDSYQKILP [ATM_Y1415_L1420P] | 0.321
ERLWVYGMSSS [F8_Y1728_D1727V] | 0.612
EQLRAYLEGLC [HLA-C_Y183_T187L] | 0.673
TIQDAYMHITS [ADCY10_Y318_A313T] | 0.398
SVTCTYSPALK [TP53_Y126_N131K] | 0.567
GGSTYYIDTNA [ACTL6A_Y69_P66S] | 0.555
FLTQHYDAIPQ [ANG_Y38_K41I] | 0.51
DSNPIYSQIWS [FCRL3_Y662] | 21.2

Target: FGFR1 (UniProt P11362)
Sequence (P11362 whole entry, looked up): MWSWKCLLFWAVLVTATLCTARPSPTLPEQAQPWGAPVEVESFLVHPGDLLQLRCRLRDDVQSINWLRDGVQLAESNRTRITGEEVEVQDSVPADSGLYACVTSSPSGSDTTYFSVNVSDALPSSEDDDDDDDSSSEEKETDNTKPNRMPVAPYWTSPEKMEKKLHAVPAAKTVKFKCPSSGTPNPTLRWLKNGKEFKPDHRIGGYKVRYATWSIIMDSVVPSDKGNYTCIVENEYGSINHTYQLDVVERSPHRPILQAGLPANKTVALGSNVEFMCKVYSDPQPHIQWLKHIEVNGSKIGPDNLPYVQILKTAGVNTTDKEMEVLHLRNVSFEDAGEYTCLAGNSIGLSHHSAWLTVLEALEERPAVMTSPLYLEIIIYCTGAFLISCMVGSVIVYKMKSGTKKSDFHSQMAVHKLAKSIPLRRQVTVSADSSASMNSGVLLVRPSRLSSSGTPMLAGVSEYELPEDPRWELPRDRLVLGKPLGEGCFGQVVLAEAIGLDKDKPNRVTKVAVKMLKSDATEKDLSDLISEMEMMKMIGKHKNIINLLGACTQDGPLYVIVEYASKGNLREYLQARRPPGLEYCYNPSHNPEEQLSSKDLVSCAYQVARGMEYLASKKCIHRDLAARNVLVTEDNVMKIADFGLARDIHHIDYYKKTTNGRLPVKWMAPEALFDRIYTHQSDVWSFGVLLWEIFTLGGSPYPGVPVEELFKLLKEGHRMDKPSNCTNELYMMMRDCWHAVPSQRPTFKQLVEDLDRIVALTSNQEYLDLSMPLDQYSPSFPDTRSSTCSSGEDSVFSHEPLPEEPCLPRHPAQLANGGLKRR
Assay: as above

Sequence | phosphorylation enrichment
FFRKFYNKSED [RYR1_Y4864] | 0.484
EALDFYGEVKT [PTEN_Y155_R159K] | 0.53
CTTNHYNFMCN [TP53_Y234_I232N_YF] | 0.626
PMWHPYKADVT [TP53TG5_Y255_V257A] | 0.309
GRSTCYWPRPR [GAGE12J_Y10_Y9C] | 0.538
AKKVFYVIETR [SHH_Y253] | 0.542
FLEEEYVKAVG [TF_Y674_G671E_YF] | 0.517
RSSKTYLKTRS [LPL_Y329_M328T] | 0.499
TNIKRYHIAKG [HARS1_Y150_V155G] | 0.351
QNTADYYDLYG [PTPN11_Y62_G60A] | 15.3
MGIMLYGVDSR [PKD1_Y3143_V3138M] | 0.449
TEALFYTDDTA [ADPRS_Y75_YF] | 0.535
VRVQLYDPDYM [CYP4A22_Y100] | 0.538
HFPDVYAWEQL [ALX3_Y181_R183W_YF] | 0.616
RLLRGYDQYAY [HLA-B_Y137_H137Y] | 0.548
SSTAMYSAPGR [PSMB1_Y8] | 0.45
WNEVGYDDIGG [VCP_Y203_L198W] | 0.557
QNTGFYFDLFG [PTPN11_Y62_D61Y_YF] | 3.04
QTLEAYIRCNK [SPAST_Y604_W607C] | 0.559
TTPFNYSFIFK [RAB14_Y8_A4T_YF] | 0.725
SQSPHYFRSGQ [GPATCH8_Y1038_R1043Q] | 0.366
KSPDSYQKILP [ATM_Y1415_L1420P] | 0.517
ERLWVYGMSSS [F8_Y1728_D1727V] | 0.529
EQLRAYLEGLC [HLA-C_Y183_T187L] | 0.512
TIQDAYMHITS [ADCY10_Y318_A313T] | 0.624
SVTCTYSPALK [TP53_Y126_N131K] | 0.407
GGSTYYIDTNA [ACTL6A_Y69_P66S] | 0.724
FLTQHYDAIPQ [ANG_Y38_K41I] | 0.639
DSNPIYSQIWS [FCRL3_Y662] | 6.65
